Reference: the supplement of paper PMC9170038

tested on: MS2 coat protein; experiment: apparent KD of MS2 coat protein; higher = weaker reporter binding; settings: Eterna round: R107; input ligand: theophylline 2 mM
Outline: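 Designed RNA switches, transcribed on-chip from Illumina sequencing clusters, were titrated with SNAP-549-labelled MS2 coat protein from 0.7 or 1.5 nM to 3 µM in twofold steps. The solution was 100 mM Tris-HCl pH 7.5, 80 mM KCl, 4 mM MgCl2, with constant ligand or without it. Apparent KD is the median over each design's normalised cluster binding-curve fits.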

Sequence	apparent KD of MS2 coat protein [nM]
GGGCCCGGGCGCGAGCCCGGGCCCAUUGAUACCAGUGAGAGAGAGCGCCCUUGGCAGCGAAUCCUAACAUGAGGAUCACCCAUGU [5.N]	84.3
UCGGACAUGAGGAUCACCCAUGUAAAUCCUCGAGGACCGGUACGGCCGCCACUCGAACGAGUGGCGCGCGAGUGCGCACUCGCGC [aFa]	35.8
GGGCGCUAUCCCGCGAGGGAUAGCGUUCGACGAGGACCGGUACGGCCGCCACUCGAACGAGUGGUGACAUGAGGAUCACCCAUGU [Naa]	59.4
AAAUAAAUACAUGAGGAUCACCCAUGUGAAGGAGCGCCCGUUAGGGCAGGUAGGUCGCACAUGAAUAACUCCGUGCAAAAGCACA [ArgEX 18 #OpenEnded]	37.1

same assay, conditions: Eterna round: R107; input ligand: tryptophan 2.4 mM

Sequence	apparent KD of MS2 coat protein [nM]
UGCAUGAUCUGAAGGAGCGUGUAUGAUGAUAACAUGAGGAUCACCCAUGUCGAGACGGUAACACAGGUAGGUCGCAGAUCAUGCU [Arg B SS t4]	24.7
GACAUGAGGAUCACCCAUGUACCGCGAGAAGGAGCGCGGAUAAACGCAGGUAGGUCGCUCGUGGGCUCACAUUCAAUUGUAAGCU [Digece]	31.6
CUCCCGUGAGCGGCCGCCACUGGAGGCCUCGCGCGACAUGAGGAUCACCCAUGUUGGCCCGGCCUCAGGACCGGGUUCGCGUGAG [Same State - Tryptophan B Attempt #6 (HarryS)]	8.4
GAGCUGAUGUAGAGCUUAUAUAAGAGAGAUACCAGUACAGAAAUGUACCCUUGGCAGCUCAACUUUACAUGAGGAUCACCCAUGU [Ex Theophylline A 20]	18.1
ACACCGAAAGGUGCAUUUACCUUAUCAGAUACCAGACUUUACGUUGUCCCUUGGCAGCUGUAUCACAUGAGGAUCACCCAUGUUG [JR_SSTheophyA_Sub011]	16.6
GGUAUGUAUUCGGAAACGAAUGCAUACCAUCGAGGACCGGUACGGCCGCCACUCGUGGCUGAUCAACAUGAGGAUCACCCAUGUA [Ex Tryptophan A 1]	50.4
GGAUAGGACACGGCCGCCACUACCUAGGAUACUAGCAACAUUUGGGUAUAUGAGGAUCACCCAUAUAGGACCGGGUGUCCUAUCG	102
GUUGGAUUUUCGGCCGCCACUGAGAGAGUCAUGUGAACAUGAGGAUCACCCAUGUAAUAUAUAUACAGGACCGGGAGGGUUGUAA [4.L]	13.5
GCUGUUGCGGUGAGGUAUCCGGCUGUGGAAGGAGCGCGGAAUGCCGCAGGUAGGUCGCCACAUGAGGAUCACCCAUGUCGAUAUA [Atzalama]	21.2
AACAUGAGGAUCACCCAUGUUUGCUAUGAAGGAGCGUCGGAAAUGACAGGUAGGUCGCAUGGUAGACCGAGUAUUAUCUGUAUGG [EAA NP+V+V2 #11]	12.1
UAAACACAUGAGGAUCACCCAUGUCAUGAUACCAGUCAACAUGAGGACCCUUGGCAGCAUAAAAUGGGUAACAUGAGGAUCACCC [AstrosEXyTheA#2]	51.5
UAUCCACAUGAGGAUCACCCAUGUUAGGAAGGAGCGGUGAGUGCACCAGGUAGGUCGCCUAGCUGAGGACUGUCGGUGGAUUCGU [Exclusion - Arginine A (Freestyle 20)]	47.7
GAACAACAUGAGGAUCACCCAUGUCAGGAUACCAGUCGAAAGUCAGACCCUUGGCAGCCUAUCACUCAGCAAAUAGAUAGUACAA [theeternabot_sameState_MS2_Theo_A_12]	16.2
ACGUAAAGCAGAAGGAGCGUCUUCAAUUUACAUGAGGAUCACCCAUGUUUUGUGAUCAUAUGACAGGUAGGUCGCUGAAGUACGA [JR_SSArginiB_Sub002]	123
GCACCAGGUACGGAUACCAGCUAUAGGUACAGCGGAGGACAUGAGGAUCACCCAUGUGGUAGCCCUUGGCAGCUGUACCUGGUGC [EThB NP+V+V2 #1 +-Same Structure]	15.5
CAUACUUUAGUAUGUAAUGUGGACAGUGAUACCAGAUACGAAAGUAUCCCUUGGCAGCACAACAUGAGGAUCACCCAUGUAUUUU [Theophylline A 3]	19.2
GGCAGUCAUAGGAGGGCAAAUAUACUCGAAGGAGCGUCAUAGUAGGCAGGUAGGUCGCGAGACAUGAGGAUCACCCAUGUAGAGA [wwzmullin]	90.5
AUUAUCAUGGUCAUAUAUAUUUCGUCAGAUACCAGACUAGAUAUAGUCCCUUGGCAGCUGUUACAUGAGGAUCACCCAUGUUAUU [JR_ExcTheophyA_Sub017]	96.3
CACGGAAGAGUGGAUCACCCUCUUAAUAAACGAGGACCGGUACGGCCGCCACUCGAAAACCGUGACCUGUACGAAAAGUGCAGGA	127
UGACAUUGCUGCGAUACCAGACAUGAGGAUCACCCAUGUACCAAGGUACGAAAAUAACAUGUCCCUUGGCAGCGCAGCAAUGUCU [MAT - Exclusion Theophlline B - Mod of Eli - D4]	12.1
GCACCAGGUACGGAUACCAGCUGCCACAGUUACAUGAGGAUCACCCAUGUGAAAACGUGUAGCCCUUGGCAGCUGUACCUGGUGC [SSThB NP+V+V2 #8 Same Structure]	398
AGCUCAGAGAGUGAUACCAGACUACAUGAGGAUCACCCAUGUUACUUUUAAAUAUCAUGAGUCCCUUGGCAGCACAAGAAGAGCA [JR_ExcTheophyB_Sub016]	73.2
AGAGUCUAGUCGGCCGCCACUCAUGUCCUAAGGACAUGAGGAUCACCCAUGUACCAAAGGUACAUGAGGACCGGGACUGGACUCA [Omei Tryp B SS C v1]	9.28
GGACCAUGGCGCGAUACCAGCUUGAGUGUACUGGCCAGGUACAUGAGGAUCACCCAUGUAAGCCCUUGGCAGCGCGCCAUGGUCC [#1 Exclusion - Theophylline B Attempt #24 (HarryS)]	10.7
CGUGGUUGAGAUGGGCCUCUGAUAAGUCUGCGAGGACCGGUACGGCCGCCACUCGAGGACAUGAGGAUCACCCAUGUACUUCGCG [Vequar]	19.2
ACAUGAGGAUCACCCAUGUUCCUCAUUGAUACCAGUGAAUUUAGACGCCCUUGGCAGCGAGUUUUUUUAGAAGAAGUUUUUUUUU [6.F]	929
GGGCCCGGGCGCGAGCCCGGGCCCAUUGAUACCAGUGAGAGAGAGCGCCCUUGGCAGCGAAUCCUAACAUGAGGAUCACCCAUGU [5.N]	41.6
UCGGACAUGAGGAUCACCCAUGUAAAUCCUCGAGGACCGGUACGGCCGCCACUCGAACGAGUGGCGCGCGAGUGCGCACUCGCGC [aFa]	26.6
GGGCGCUAUCCCGCGAGGGAUAGCGUUCGACGAGGACCGGUACGGCCGCCACUCGAACGAGUGGUGACAUGAGGAUCACCCAUGU [Naa]	49.7
AAAUAAAUACAUGAGGAUCACCCAUGUGAAGGAGCGCCCGUUAGGGCAGGUAGGUCGCACAUGAAUAACUCCGUGCAAAAGCACA [ArgEX 18 #OpenEnded]	31.3
